Source: US20150011431A1
One block for each substance: values may come before it.

Target: CXCR1 (UniProt P25024)
Assay: cell-based or functional assay

Chain of IL-8 (soluble cytokine) (P10145 28-99 limits assumed): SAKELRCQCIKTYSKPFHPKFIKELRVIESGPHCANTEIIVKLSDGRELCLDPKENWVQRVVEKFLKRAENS
Chain of CXCR1 (P25024 whole entry): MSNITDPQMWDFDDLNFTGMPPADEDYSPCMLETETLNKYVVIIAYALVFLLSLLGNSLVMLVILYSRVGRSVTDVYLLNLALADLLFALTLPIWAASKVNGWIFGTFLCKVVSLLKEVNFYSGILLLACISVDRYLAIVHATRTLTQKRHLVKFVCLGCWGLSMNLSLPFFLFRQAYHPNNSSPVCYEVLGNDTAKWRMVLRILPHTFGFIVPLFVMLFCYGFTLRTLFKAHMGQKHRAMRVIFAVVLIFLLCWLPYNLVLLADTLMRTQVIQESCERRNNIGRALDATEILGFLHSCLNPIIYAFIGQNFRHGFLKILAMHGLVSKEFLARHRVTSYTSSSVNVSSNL

average RLU at 0.01 nM (beta-arrestin recruitment reporter, CXCR1-U2OS cells): 440 RLU | average RLU at 0.08 nM (beta-arrestin recruitment reporter, CXCR1-U2OS cells): 504 RLU | average RLU at 0.23 nM (beta-arrestin recruitment reporter, CXCR1-U2OS cells): 940 RLU | average RLU at 0.69 nM (beta-arrestin recruitment reporter, CXCR1-U2OS cells): 1940 RLU | average RLU at 2.06 nM (beta-arrestin recruitment reporter, CXCR1-U2OS cells): 4110 RLU | average RLU at 6.17 nM (beta-arrestin recruitment reporter, CXCR1-U2OS cells): 5870 RLU | average RLU at 18.52 nM (beta-arrestin recruitment reporter, CXCR1-U2OS cells): 7300 RLU | average RLU at 31.5 nM (beta-arrestin recruitment reporter, CXCR1-U2OS cells): 55500 RLU | average RLU at 55.56 nM (beta-arrestin recruitment reporter, CXCR1-U2OS cells): 7360 RLU | average RLU at 166.67 nM (beta-arrestin recruitment reporter, CXCR1-U2OS cells): 6770 RLU | average RLU at 500.00 nM (beta-arrestin recruitment reporter, CXCR1-U2OS cells): 5720 RLU
Substance: IL-8 (soluble cytokine) (from UniProt P10145 28-99) (ligand)

average RLU at 0.001 nM IgG (beta-arrestin recruitment reporter, CXCR1-U2OS cells): 7500 RLU | average RLU at 0.004 nM IgG (beta-arrestin recruitment reporter, CXCR1-U2OS cells): 7390 RLU | average RLU at 0.013 nM IgG (beta-arrestin recruitment reporter, CXCR1-U2OS cells): 7050 RLU | average RLU at 0.040 nM IgG (beta-arrestin recruitment reporter, CXCR1-U2OS cells): 6970 RLU | average RLU at 0.120 nM IgG (beta-arrestin recruitment reporter, CXCR1-U2OS cells): 7330 RLU | average RLU at 0.359 nM IgG (beta-arrestin recruitment reporter, CXCR1-U2OS cells): 6690 RLU | average RLU at 1.076 nM IgG (beta-arrestin recruitment reporter, CXCR1-U2OS cells): 7180 RLU | average RLU at 3.228 nM IgG (beta-arrestin recruitment reporter, CXCR1-U2OS cells): 7030 RLU | average RLU at 9.685 nM IgG (beta-arrestin recruitment reporter, CXCR1-U2OS cells): 7170 RLU | average RLU at 29.056 nM IgG (beta-arrestin recruitment reporter, CXCR1-U2OS cells): 7100 RLU | average RLU at 87.167 nM IgG (beta-arrestin recruitment reporter, CXCR1-U2OS cells): 7140 RLU | average RLU at 261.500 nM IgG (beta-arrestin recruitment reporter, CXCR1-U2OS cells): 7540 RLU
Substance: IgG VH4-4 CDR3 BsaI (lacking the IL-8 insert) (antibody)
